Laboratory results taken from the supplement of paper PMC10567573.

B1: ZNF649 (parent)
chain: MTKAQESLTLEDVAVDFTWEEWQF

Variants of: B1
Assay: protein stability index of a GFP-peptide fusion (GPS, HEK-293T) (PSI 1-6); higher = more stable
Conditions: c terminus: a fixed tail appended
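Further: lentivirally expressed fusions sorted by FACS into six bins by GFP to DsRed ratio, PSI derived from sequencing read proportions per bin multiplied by bin number.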

Compared with MTKAQESLWLEDVAVDFTWEEWQF [T9W], MTKQQESLTLEDVAVDFTWEEWQF [A4Q] is higher in protein stability index: 2.54 for the first, 3.18 for the second.

Going from MTKAQESLTLEDVAVDETWEEWQF [F17E] to MTKAQESLTLERVAVDFTWEEWQF [D12R], the protein stability index falls from 5.01 to 2.85.

Going from MTKAFESLTLEDVAVDFTWEEWQF [Q5F] to MTKAQESLTLESVAVDFTWEEWQF [D12S], the protein stability index falls from 3.12 to 2.13.

First: MTKAQEGLTLEDVAVDFTWEEWQF [S7G]
Second: MTKAQESLTQEDVAVDFTWEEWQF [L10Q]
The protein stability index of the first is lower: 3.8 for the first, 4.13 for the second.

Compared with MTKDQESLTLEDVAVDFTWEEWQF [A4D], STKAQESLTLEDVAVDFTWEEWQF [M1S] is higher in protein stability index: 3.48 for the first, 3.91 for the second.

Compared with MTKAQESLTREDVAVDFTWEEWQF [L10R], MTKAQESLTLEDVAVDFTWEEWQW [F24W] is lower in protein stability index: 3.88 for the first, 2.88 for the second.

First: MTKAQESLTLEDVAVDFTWQEWQF [E20Q]
Second: MTKAQESITLEDVAVDFTWEEWQF [L8I]
The protein stability index of the first is lower: 2.32 for the first, 3.05 for the second.

Going from MTKAQHSLTLEDVAVDFTWEEWQF [E6H] to MTKAQESLTLEDVAVDFKWEEWQF [T18K], the protein stability index rises from 2.2 to 2.48.

Compared with MTKAQESLTLEDVAWDFTWEEWQF [V15W], MTSAQESLTLEDVAVDFTWEEWQF [K3S] is higher in protein stability index: 2.59 for the first, 3.85 for the second.

Going from MVKAQESLTLEDVAVDFTWEEWQF [T2V] to MTKAQVSLTLEDVAVDFTWEEWQF [E6V], the protein stability index falls from 2.64 to 1.75.

Going from MTKAQESLTLEPVAVDFTWEEWQF [D12P] to MTKAQESLTLEDVAVDFTWEEWIF [Q23I], the protein stability index falls from 3.05 to 1.97.

Compared with MTKAQESLTLEDVAVDFTWEWWQF [E21W], MTKAQESLTEEDVAVDFTWEEWQF [L10E] is higher in protein stability index: 2.72 for the first, 4.38 for the second.

Compared with MTKAQESLTLVDVAVDFTWEEWQF [E11V], MTKAQESMTLEDVAVDFTWEEWQF [L8M] is higher in protein stability index: 1.43 for the first, 3.62 for the second.

First: MTKAQESLKLEDVAVDFTWEEWQF [T9K]
Second: MTKAQESLTLEDVAVDFTWEEWQD [F24D]
The protein stability index of the first is lower: 3.38 for the first, 4.57 for the second.

Going from MTKAQESLTLEDVAYDFTWEEWQF [V15Y] to MTEAQESLTLEDVAVDFTWEEWQF [K3E], the protein stability index rises from 3.91 to 4.29.

Compared with MTKAQQSLTLEDVAVDFTWEEWQF [E6Q], MTKAQESLTLEDSAVDFTWEEWQF [V13S] is higher in protein stability index: 2.94 for the first, 4.69 for the second.

Going from MTKAQESLTLEDVAADFTWEEWQF [V15A] to MTKAQESLTLEDVAVKFTWEEWQF [D16K], the protein stability index falls from 3.92 to 2.5.

Going from MTCAQESLTLEDVAVDFTWEEWQF [K3C] to MTKAQESLTLEDVAVDFTWEEYQF [W22Y], the protein stability index rises from 2.23 to 3.44.

Compared with MTKAQESLTLEDVPVDFTWEEWQF [A14P], MTKAQESLTLEMVAVDFTWEEWQF [D12M] is lower in protein stability index: 4.12 for the first, 2.14 for the second.

First: MTKAQWSLTLEDVAVDFTWEEWQF [E6W]
Second: MTKAQESLTLEDVANDFTWEEWQF [V15N]
The protein stability index of the first is lower: 1.95 for the first, 3.87 for the second.

Compared with MTKMQESLTLEDVAVDFTWEEWQF [A4M], MTKAQESLFLEDVAVDFTWEEWQF [T9F] is higher in protein stability index: 2.5 for the first, 3.35 for the second.

Going from MTKAQESLTLEDVAVDFTWERWQF [E21R] to MTKAQESLTLEDVADDFTWEEWQF [V15D], the protein stability index rises from 3.17 to 3.77.

Compared with FTKAQESLTLEDVAVDFTWEEWQF [M1F], MTKAQESLTLEDVAVDFTDEEWQF [W19D] is higher in protein stability index: 2.69 for the first, 4.65 for the second.

Compared with MTKAQESLTLEDVAVDFTEEEWQF [W19E], MTKAQESLTLEDVHVDFTWEEWQF [A14H] is lower in protein stability index: 4.66 for the first, 3.12 for the second.

Compared with MTKAQESLTLEDVAVDFGWEEWQF [T18G], MTKAQESGTLEDVAVDFTWEEWQF [L8G] is higher in protein stability index: 3.37 for the first, 4.11 for the second.

Going from MTKAWESLTLEDVAVDFTWEEWQF [Q5W] to MTKAQNSLTLEDVAVDFTWEEWQF [E6N], the protein stability index rises from 1.49 to 2.88.

Going from MTTAQESLTLEDVAVDFTWEEWQF [K3T] to MTKAQESLTCEDVAVDFTWEEWQF [L10C], the protein stability index rises from 3.33 to 4.05.

First: MTKAIESLTLEDVAVDFTWEEWQF [Q5I]
Second: MTKAQEFLTLEDVAVDFTWEEWQF [S7F]
The protein stability index of the first is lower: 3.02 for the first, 3.2 for the second.

Compared with MTKGQESLTLEDVAVDFTWEEWQF [A4G], MTKAQESLTLEDVAVSFTWEEWQF [D16S] is higher in protein stability index: 2.94 for the first, 3.12 for the second.

Going from MGKAQESLTLEDVAVDFTWEEWQF [T2G] to MTKAQESLTLEDVAVIFTWEEWQF [D16I], the protein stability index falls from 3.25 to 2.52.

First: MTKAQESLMLEDVAVDFTWEEWQF [T9M]
Second: MTKAQESLTLEDVAVDFTWEEMQF [W22M]
The protein stability index of the first is lower: 3.16 for the first, 3.72 for the second.

First: MTKAQESLTLEDVAVDFTWEEWQM [F24M]
Second: MTKAQESLTLEDVAVDFTWEEDQF [W22D]
The protein stability index of the first is lower: 4.49 for the first, 4.64 for the second.

Going from MTKAQESLTLIDVAVDFTWEEWQF [E11I] to MTKAQESLTLEDVAVDFFWEEWQF [T18F], the protein stability index falls from 2.25 to 1.79.

Compared with MTKAQECLTLEDVAVDFTWEEWQF [S7C], MTKAQESLTLEDVAVDFTWSEWQF [E20S] is lower in protein stability index: 2.9 for the first, 2.65 for the second.

Going from MTKATESLTLEDVAVDFTWEEWQF [Q5T] to MTKAQESLTLEDVAVDFTWETWQF [E21T], the protein stability index falls from 3.04 to 2.21.

Compared with MTKAQESLTLEDVAVDFTWEFWQF [E21F], MTKAQESLTLEDVAVDFTWEEWQS [F24S] is higher in protein stability index: 3.42 for the first, 3.9 for the second.

Going from MTKAQESLTMEDVAVDFTWEEWQF [L10M] to MTHAQESLTLEDVAVDFTWEEWQF [K3H], the protein stability index rises from 3.44 to 3.7.

First: MTKAQESLTLEDVAVDFRWEEWQF [T18R]
Second: MTKAQESLTLEDVAVDFTWESWQF [E21S]
The protein stability index of the first is higher: 2.17 for the first, 2.11 for the second.

Going from MTKAQESRTLEDVAVDFTWEEWQF [L8R] to MTKAQESLTLEDVAVCFTWEEWQF [D16C], the protein stability index falls from 3.79 to 2.89.

Going from MTKEQESLTLEDVAVDFTWEEWQF [A4E] to MTKAQESLTLEDVAVDFTWPEWQF [E20P], the protein stability index falls from 3.66 to 2.76.

First: MTKAQESLTLEDVAVDFTWWEWQF [E20W]
Second: MTKAQESLTLEDVAVDFTAEEWQF [W19A]
The protein stability index of the first is lower: 2.28 for the first, 4.51 for the second.

First: MTKAQESLTLEDKAVDFTWEEWQF [V13K]
Second: MTKAQESLTLEDVAMDFTWEEWQF [V15M]
The protein stability index of the first is higher: 4.16 for the first, 3.77 for the second.

Going from MTKLQESLTLEDVAVDFTWEEWQF [A4L] to MTKAQESLTLEDAAVDFTWEEWQF [V13A], the protein stability index rises from 3.71 to 3.98.

Compared with MTKAQESLTLEDVAVDFSWEEWQF [T18S], MTKAQYSLTLEDVAVDFTWEEWQF [E6Y] is lower in protein stability index: 3.15 for the first, 1.53 for the second.

Going from MTKAQESLTLEEVAVDFTWEEWQF [D12E] to MTKASESLTLEDVAVDFTWEEWQF [Q5S], the protein stability index rises from 3.23 to 3.96.

Going from MTKAQESLTLEDVAVDPTWEEWQF [F17P] to MTKAQESLTLEDHAVDFTWEEWQF [V13H], the protein stability index falls from 4.43 to 3.88.

Compared with MTKAQESLTLEDVAVDFTWEEWPF [Q23P], MTKAQELLTLEDVAVDFTWEEWQF [S7L] is lower in protein stability index: 3.22 for the first, 2.43 for the second.
